# Experimental data published in US20200164032A1 (WASHINGTON UNIVERSITY, published 2020).
# T1: murine CXCL1 (mouse, UniProt P12850 25-96)
# T1 construct: also called mCXCL1
# T1 sequence: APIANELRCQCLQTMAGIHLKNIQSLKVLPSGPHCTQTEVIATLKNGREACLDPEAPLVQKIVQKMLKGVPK
# T2: murine CCL3 (mouse, UniProt P10855 24-92)
# T2 construct: also called mCCL3
# T2 sequence: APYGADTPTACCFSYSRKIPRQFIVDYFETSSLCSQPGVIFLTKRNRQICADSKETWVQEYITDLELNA
# T3: murine CCL4 (mouse, UniProt P14097 24-92)
# T3 construct: also called mCCL4
# T3 sequence: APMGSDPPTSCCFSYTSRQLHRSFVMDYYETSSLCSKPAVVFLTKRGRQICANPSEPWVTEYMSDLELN
# T4: human CCL5 (human, UniProt P13501 24-91)
# T4 construct: also called hCCL5
# T4 sequence: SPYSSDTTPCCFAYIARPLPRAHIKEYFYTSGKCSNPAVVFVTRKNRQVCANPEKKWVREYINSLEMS
# T5: murine CCL8 (mouse, UniProt Q9Z121 24-97)
# T5 construct: also called mCCL8
# T5 sequence: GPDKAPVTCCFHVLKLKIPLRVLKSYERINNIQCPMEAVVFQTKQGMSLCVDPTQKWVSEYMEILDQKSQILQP
# T6: murine CCL20 (mouse, UniProt O89093 28-97)
# T6 construct: also called mCCL20
# T6 sequence: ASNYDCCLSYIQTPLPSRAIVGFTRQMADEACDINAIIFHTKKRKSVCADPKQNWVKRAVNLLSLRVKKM
# T7: murine CCL24 (mouse, UniProt Q9JKC0 27-119)
# T7 construct: also called mCCL24
# T7 sequence: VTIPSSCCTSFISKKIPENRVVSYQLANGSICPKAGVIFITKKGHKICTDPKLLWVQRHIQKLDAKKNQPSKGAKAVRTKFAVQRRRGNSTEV
# T8: murine CCL12 (mouse, UniProt Q62401 23-104)
# T8 construct: also called mCCL12
# T8 sequence: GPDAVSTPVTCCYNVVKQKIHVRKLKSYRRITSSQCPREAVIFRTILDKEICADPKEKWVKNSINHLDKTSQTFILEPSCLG
# T9: murine XCL1 (lymphotactin) (mouse, UniProt P47993 22-114)
# T9 construct: also called mXCL1; lymphotactin (XCL1)
# T9 sequence: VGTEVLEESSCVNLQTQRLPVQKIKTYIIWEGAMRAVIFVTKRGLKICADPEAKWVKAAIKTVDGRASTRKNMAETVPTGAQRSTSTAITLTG
# T10: CCL9 (UniProt P51670 22-122)
# T10 sequence: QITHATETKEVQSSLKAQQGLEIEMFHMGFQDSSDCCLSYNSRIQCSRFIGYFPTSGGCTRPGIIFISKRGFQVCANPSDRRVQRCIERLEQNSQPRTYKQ
# What was measured:
# murine CXCL1 = target: T1, murine CXCL1; assay: SPR, R17 on CM5 chip
# murine CCL2 [1] = target: T11, murine CCL2 (mouse, UniProt P10148 24-148); assay: SPR, R17 on CM5 chip; t1/2
# T11 construct: also called mCCL2
# T11 sequence (P10148 24-148 limits assumed): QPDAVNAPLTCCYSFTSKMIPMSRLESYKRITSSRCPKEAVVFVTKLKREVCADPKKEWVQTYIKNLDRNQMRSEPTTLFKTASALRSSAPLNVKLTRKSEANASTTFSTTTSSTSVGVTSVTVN
# murine CCL3 [2] = target: T2, murine CCL3; assay: SPR, R17 on CM5 chip; t1/2
# murine CCL4 [3] = target: T3, murine CCL4; assay: SPR, R17 on CM5 chip; t1/2
# murine CCL5 [4] = target: T12, murine CCL5 (mouse, UniProt P30882 24-91); assay: SPR, R17 on CM5 chip; t1/2
# T12 construct: also called mCCL5
# T12 sequence (P30882 24-91 limits assumed): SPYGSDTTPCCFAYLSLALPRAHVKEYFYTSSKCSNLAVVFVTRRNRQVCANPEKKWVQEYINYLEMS
# human CCL5 [5] = target: T4, human CCL5; assay: SPR, R17 on CM5 chip; t1/2
# murine CCL8 [6] = target: T5, murine CCL8; assay: SPR, R17 on CM5 chip; t1/2
# murine CCL20 [7] = target: T6, murine CCL20; assay: SPR, R17 on CM5 chip; t1/2
# murine CCL24 [8] = target: T7, murine CCL24; assay: SPR, R17 on CM5 chip; t1/2
# murine CCL12 [9] = target: T8, murine CCL12; assay: SPR, R17 on CM5 chip; t1/2
# [10] = target: T9, murine XCL1 (lymphotactin); assay: SPR, R17 on CM5 chip; t1/2
# CCL9 [11] = target: T10, CCL9; assay: SPR, R17 on CM5 chip; t1/2
# murine CCL2 [12] = target: T11, murine CCL2; assay: SPR, R17 on CM5 chip; KD,eq from saturation binding, Scatchard analysis
# murine CCL3 [13] = target: T2, murine CCL3; assay: as above
# murine CCL4 [14] = target: T3, murine CCL4; assay: as above
# murine CCL5 [15] = target: T12, murine CCL5; assay: as above
# human CCL5 [16] = target: T4, human CCL5; assay: as above
# murine CCL8 [17] = target: T5, murine CCL8; assay: as above
# murine CCL20 [18] = target: T6, murine CCL20; assay: as above
# murine CCL24 [19] = target: T7, murine CCL24; assay: as above
# murine CCL12 [20] = target: T8, murine CCL12; assay: as above
# [21] = target: T9, murine XCL1 (lymphotactin); assay: as above
# CCL9 [22] = target: T10, CCL9; assay: as above
binder,measurement,setting,value
"R17 chemokine decoy receptor of Rodent herpesvirus Peru (RHVP), wild type, C-terminal 8-His fusion (receptor, not shown: C-terminal 8-His tag) GPVGEPVASEINEASKVSSRLLTQDILFRKDRQATISLPIKLPVEDIITQTCDKITYGPLKFLDLLEKETAVLPLSTDITCPACLGRAVLVGKWECPAHVAVNESDLTVFGPNKEEHVPQFVTVQQPSDGKMQRLFFAKFLGTEESLAVLRVPGPDGHLCIQEALIHFKELSGAGVCSLWKANDSREEGLEMKQVDCLETTVLENQTCIATTLSKKIYHRLYCGERLMTGGQVSTRVLLTALGFYKRQPYTFHRVPKGMVYVHLIDSGSEDYMEYSECEEVTPGRYEDKQISYTFYTDLFQTADGEPVLASVWGTSGLKDSAYESCAFVIPTKGRRKLVPRRIMSKCYPFRLTYHPSTMTVRLDVRVEKHHGATDQGFVFLKMESGTYSEGREYYLDRVLWGEDSSTNNVLQ",binding result,murine CXCL1,no binding
same,t1/2,murine CCL2 [1],34.6 s
same,t1/2,murine CCL3 [2],> 1000 s
same,t1/2,murine CCL4 [3],> 1000 s
same,t1/2,murine CCL5 [4],> 1000 s
same,t1/2,human CCL5 [5],> 1000 s
same,t1/2,murine CCL8 [6],6.9 s
same,t1/2,murine CCL20 [7],32.2 s
same,t1/2,murine CCL24 [8],> 1000 s
same,t1/2,murine CCL12 [9],6.9 s
same,t1/2,[10],> 1000 s
same,t1/2,CCL9 [11],6.8 s
same,Kd,murine CCL2 [12],10 nM
same,Kd,murine CCL3 [13],0.4 nM
same,Kd,murine CCL4 [14],0.8 nM
same,Kd,murine CCL5 [15],0.1 nM
same,Kd,human CCL5 [16],0.9 nM
same,Kd,murine CCL8 [17],80 nM
same,Kd,murine CCL20 [18],3.4 nM
same,Kd,murine CCL24 [19],2.2 nM
same,Kd,murine CCL12 [20],1.3 nM
same,Kd,[21],4.2 nM
same,Kd,CCL9 [22],1.3 nM
